Test results reported in the supplement of paper PMC9170038.

Test system: MS2 coat protein
Assay: apparent KD of MS2 coat protein; designed switch direction (-1 OFF switch, 1 ON switch): 1; higher = weaker reporter binding
Method in brief: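 The buffer was Tris-HCl pH 7.5 with KCl, MgCl2, BSA, DTT, tRNA and Tween-20. In it, SNAP-549-labelled MS2 coat protein was titrated in doubling steps from 0.7 or 1.5 nM to 3 µM over chip-bound RNA switches transcribed by stalled E. coli RNA polymerase on Illumina chips. Apparent KD is the per-design median over clusters of curve fits to normalised fluorescence.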

[1] = Eterna round: R95, input ligand: FMN 200 uM
[2] = Eterna round: R95, input ligand: microRNA oligo, concentration not stated
[3] = Eterna round: R95, input ligand: none
[4] = input ligand: microRNA oligo, concentration not stated

Sequence	apparent KD of MS2 coat protein [1] [nM]	apparent KD of MS2 coat protein [2] [nM]	apparent KD of MS2 coat protein [3] [nM]	apparent KD of MS2 coat protein (input ligand: FMN 200 uM) [nM]	apparent KD of MS2 coat protein [4] [nM]	apparent KD of MS2 coat protein (input ligand: none) [nM]
AAAAUACAUGAGGAUCACCCAUGUAGAAACUACACAGGAUAUCGGACGGCUGUAGCCAAACGAGAAGGGUGAACCC [Ramazaza] (puzzle: Same State 1)	90.8	60.8	92			
AAAAUGGGAUUUUACAUGAGGAUCACCCAUGUGGGUAUCACUGAGGAUAUGAGGAUCUUGAAAAAUCAGAAGGCAGAAUUUCAA [AK SSNG3-V2-21] (Eterna round: R96, puzzle: Same State NG 3)				410	288	329
AAACGAAACACGGCCACAUGAGGAUCACCCAUGUCGAGUUCACAGGAUAUACCUACGUCCUCGUGGUAGAAGGGUGAGGCUGUG [Rienat] (Eterna round: R96, puzzle: Same State NG 3)				750	39.5	215
AAAGAAAACGCAGGAUAUCCCGGAAUGGAACCGGGAGAAGGGUGACCGGUACAUGAGGAUCACCCAUGUAGAGCAAAGGCUCAA [Oninqu] (Eterna round: R96, puzzle: Same State NG 1)				78	114	124
AAAGCCCGUGCUAAGGAUAUGCGUACUCCUACAUGAGGAUCACCCAUGUCCCGCCGAAAAGGAAGGCAGAAGGUAGCACGGGCAA [Letiso] (puzzle: Same State 2)	48.3	114	126			
AAAGUACAUGAGGAUCACCCAUGUCCAAACAAGUAAGGAUAUACGAAAACAAAACAAAAUGUAGAAGGUACAACAA [Same State 1 #2] (puzzle: Same State 1)	18.1	17.9	26.4			
AAAGUGCCGACGAAGGAUAUAGCGGGUGAGACAUGAGGAUCACCCAUGUAUGCAGAACUCAUCCUCUAGAAGGUUGAGACGGCUA [Bionlateat] (Eterna round: R96, puzzle: Same State 2)				151	31.1	95.9
AACAAUCUAUCUGAGGAUAUCAUGAAAUAAACAUGAGGAUCACCCAUGUGCAGGAAAACUGUAUAUGAGAAGGCAGAUAGAUUGA [salish99_ss2_r3_046] (puzzle: Same State 2)	14.8	69.2	101			
AACAAUCUAUCUGAGGAUAUCAUGAAAUAAACAUGAGGAUCACCCAUGUGCAGGAAAUCUGCAUAUGAGAAGGCAGAUAGAUUGA [salish99_ss2_r3_043] (Eterna round: R96, puzzle: Same State 2)					672	
AACAAUCUAUCUGAGGAUAUCAUGAAAUAAACAUGAGGAUCACCCAUGUGCAGGAAAUCUGCAUAUGAGAAGGCAGAUAGAUUGA [salish99_ss2_r3_043] (puzzle: Same State 2)	33.9	1240	4600			
AACAUGAGGAUCACCCAUGUAGAAAAGUGAGGCAGCUCAGGGAAGGAUAUGGUUGACACCCUCGACCAGAAGGUCCAAAAUAAA [Argeatonra] (Eterna round: R96, puzzle: Same State NG 3)				31.2	54.2	63.6
AACAUGAGGAUCACCCAUGUCAGGUCGCCAACCUACAUGAGGAAGGAUAUAGCCUCGAAUAUUGGCUAGAAGGUCCUCAUGAAU [Tieson] (Eterna round: R96, puzzle: Same State NG 3)				320	16.4	39.9
AAGAAAGACGCAGGAUAUCAGUGCAAACCGCACUGAGAAGGGUGAGACAUGAGGAUCACCCAUGUAACACGGCAAAACACCGUG [Teinre] (Eterna round: R96, puzzle: Same State NG 1)				1240	49.3	191
AAGAGGUCCGCAGGAUAUACCCGGCCUCGCCGGGUAGAAGGGUGAACCUCAUAACCCACCACACACAUGAGGAUCACCCAUGUA [Enisaon] (Eterna round: R96, puzzle: Same State NG 1)				494	1.93	111
AAGUAACAUGAGGAUCACCCAUGUGAGGUGAGCGUAGGAUAUCGAGGAGGAAGGGUGGAGCGAGAAGGACGAGAGG [JR_SS1_Sub099] (Eterna round: R96, puzzle: Same State 1)				544	281	386
AAGUAACAUGAGGAUCACCCAUGUGAGGUGAGCGUAGGAUAUCGAGGAGGAAGGGUGGAGCGAGAAGGACGAGAGG [JR_SS1_Sub099] (puzzle: Same State 1)	375	189	471			

Sequence	apparent KD of MS2 coat protein [1] [nM]	apparent KD of MS2 coat protein [2] [nM]	apparent KD of MS2 coat protein [3] [nM]	apparent KD of MS2 coat protein (input ligand: FMN 200 uM) [nM]	apparent KD of MS2 coat protein [4] [nM]	apparent KD of MS2 coat protein (input ligand: none) [nM]
AAGUAACAUGAGGAUCACCCAUGUGAGGUGAGCGUAGGAUAUCGAGGAGGUAGGGUAGGUCGAGAAGGACGAGAAG [JR_SS1_Sub095] (puzzle: Same State 1)	323	210	700			
AAUACAAAUAGUCAGGAUAUCAAAAAUAAGACAUGAGGAUCACCCAUGUAAUAAGUAAAAGUAAAUGAGAAGGGACAGGGUGAAA [JR_SS002_Sub401] (Eterna round: R96, puzzle: Same State 2)					197	
AAUCCUGUCACAGGAUAUCCAAGGUAAACCCUCGGAGAAGGGUGAUAGUCUAACAAACACACACAUGAGGAUCACCCAUGUUAA [Usxeus] (Eterna round: R96, puzzle: Same State NG 1)				52.4	40.1	83.6
AAUUAAGAUCAAGGAUAUCACGUCGAAUAGACGUGAGAAGGUGAUCAUAACAUGAGGAUCACCCAUGUAUUACAUGAAUUAAUU [SSNG1/2-B1] (Eterna round: R96, puzzle: Same State NG 1)				71.3	177	289
AAUUUAAUACAUGAGGAUCACCCAUGUAAAUUAAUUAAGAUCAAGGAUAUCAGCUCGAUUAGAGCUGAGAAGGUGAUCACAUGU [SSNG3/19-A2] (Eterna round: R96, puzzle: Same State NG 3)					307	
ACAAGCUUUUCUGCAUUGAAAGGUGGGAUACAUGAGGAUCACCCAUGUUUUUAUGAAAAUAAUGCUCCUCGUCUUAU [JR_SHM208A_Sub092] (puzzle: Sensor for hsa-mir-208a)	214	50.3	243			
ACAUGAGACUCAGGAUAUGUUGUACCUACAUGUGACAUGAGGAUCACCCAUGUGGUAAGUAUGAUACAGAAGGGAGAGAUAUGU [Equivalance 65 - Jieux - Same State NG 2] (Eterna round: R96, puzzle: Same State NG 2)				20.5	22.1	43.6
ACAUGAGAGAAAGGAUAUGUUGUACCUACAUGUGACAUGAGGAUCACCCAUGUGGUAAGUAUGAGACAGAAGGUUCAGAUAUGU [Equivalence 32 - Jieux - Same State NG 2] (Eterna round: R96, puzzle: Same State NG 2)				20.4	51.1	65.7
ACAUGAGAGUGAGGAUAUGCUGUACCUACAUGUGACAUGAGGAUCACCCAUGUGGUAAGUAUGACGCAGAAGGCACAGAUAUGU [Equivalance 78 - Jieux - Same State NG 2] (Eterna round: R96, puzzle: Same State NG 2)				13.3	78.9	103
ACGUGAGGCGCAGGAUAUACAUGAGGAUCACCCGUAGAAGGGCGCACCCAUAACAUGAGGAUCACCCAUGUUGUCCAUGUCCAU [Same State NG 1 S5] (Eterna round: R96, puzzle: Same State NG 1)				226	158	241
ACUCUCACAGUAGGAUAUGUAGGAUAUGCCUACAUGAGGAUCACCCAUGUAAACAUGGCAGAAGGAUAGAAGGACUUACAUGGG [pwkr ssNG2 2FMN + 1F5.4] (Eterna round: R96, puzzle: Same State NG 2)				108	44.1	196
AGAGGAGGAGCAGGAUAUGCGAAGAAGAAAGAGGUAGAAGGGCUCAUGGGAUGACAUGAGGAUCACCCAUGUACCGCCCGAGGA [AK SSNG1-V2-8.1] (Eterna round: R96, puzzle: Same State NG 1)				11.5	46.4	297
AGAGGAGGAGCAGGAUAUGCGAAGAAGAACGUGGUAGAAGGGCUCAUGCGAUGACAUGAGGAUCACCCAUGUACCUCGCGAGGA [AK SSNG1-V2-9] (Eterna round: R96, puzzle: Same State NG 1)				414	130	186
AGAUCAUGACGAGGAUAUCCGACAUGAGGAUCACCCAUGUAUGUCGGAGGACGGAAACGUCCAAAGGAGAAGGCGUCGUGGUCA [Mat - Same State NG 2 - JL mod - D37] (Eterna round: R96, puzzle: Same State NG 2)				17.7	72.4	85.3
AGAUCAUGACGAGGAUAUGCCACAUGAGGAUCACCCAUGUAUGUGGUAGGACGCGUACGUCCAAAGCAGAAGGCGUCGUGAUCA [Mat - Same State NG 2 - JL mod - D36] (Eterna round: R96, puzzle: Same State NG 2)				21.5	37.6	47.9
